Assays:
Ocn+ cells = experiment: In vivo osteoblast depletion with diphtheria toxin; design: species or system mouse; conditions: OcnCre;Dtr or OcnCre;Dtr/Yfp mice; flow cytometry, immunohistochemistry, in situ microscopy, bone histomorphometry
Procedure: (§1) Ocn^Cre;Dtr, Ocn^Cre;Dtr/Yfp and control mice lacking either transgene were treated i.p. with DT (100 μl; 20 μg/kg, Sigma-Aldrich) every other day for 9 days with a total of five injections per mouse. In some experiments, osteoblast depletion was performed for 3 consecutive days using DT. For both DT treatment protocols, osteoblast depletion was verified. Body weight was monitored to control for DT-induced toxicity. Osteoblast depletion was verified using histological evaluation of femurs, IHC for osteocalcin and ex vivo whole mount immunofluorescence of Ocn^Cre;Dtr/Yfp mice.

[1] = Body weight monitoring for DT-induced toxicity; assay type: in vivo, mouse; conditions: DT-treated mice
Procedure: as §1

neutrophils = experiment: Neutrophil counts in wild-type mice treated with DT; conditions: bone marrow
splenocytes = experiment: In vitro assay of DT-mediated direct effects on hematopoietic cells (splenocytes)

Substance: diphtheria toxin [DT]
- Ocn+ cell numbers (Ocn+ cells): significantly reduced
- body weight [1]: did not affect
- neutrophil counts (neutrophils): maintained
- viability of hematopoietic cells (splenocytes; DT concentration used, in vitro DT titration and in vivo cellular staining by flow cytometry): did not affect the viability
- killing of CD11b+ myeloid cells (splenocytes; cells from OcnCre;Dtr mice, in vitro): not killed
- killing of DTR+ cells (splenocytes; positive control, in vitro): ability to kill

— US20200132691A1, “DETECTION AND TARGETING OF TUMOR-PROMOTING NEUTROPHILS” (THE GENERAL HOSPITAL CORPORATION, priority 2017, published 2020)
